Substitutions are numbered along the chain they refer to.
B1: Anti-CLL-1 Binder Clone 2 (scFv, not shown: small tags and cut ends)
scFv: QSVLTQPLSVSVALGQTARITCGGNNIGSKNVHWYQQKAGQAPVLVIQRDSNRPSGIPERFSGSNSGNTATLTISRAQAGDEADYFCQVWDSNTYVFGTGTKLTVLGGGGSGGGGSGGGGSEVQLVESGGGLVKPGGSLRLSCAASGFTFSDYYMSWIRQAPGKGLEWVSYISSSGSTIYYADSVKGRFTISRDNAKNSLYLQMNSLRDEDTAVYYCARQSAEIVGAFDHWGQGTMVTVSS
B2: Anti-CLL-1 Binder Clone 4 (scFv, not shown: small tags and cut ends)
scFv: QSVVTQPPSVSAAPGQKVTISCSGSSPNIGKNYVSWYQQLPGTAPKLLIYDNNKRPSGIPDRFSGSKSGTSATLGITGLQTGDEADYYCGTWDSSLSGYVFGTGTKVTVLGGGGSGGGGSGGGGSQVQLVESGGGVVQPGRSLRLSCAASGFTFSSYGMHWVRQAPGKGLEWVAFISHDGSNKYYADSVKGRSTISRDNSKSTLFLQMNSLRDEDTAVYFCAREGQLTTSWDFFDYWGHGTLVTVSS
B3: Anti-CLL-1 Binder Clone 6 (scFv, not shown: small tags and cut ends)
scFv: QSVLTQPPSVSAAPGQKVSIFCSGGSSNIGKNYVSWYQQLPGTAPKLLIYENQHRPSGIPDRFSGSKSGTSATLGITGLQTGDEADYYCATWDDSLSAGVFGGGTELTVLGGGGSGGGGSGGGGSQLVQSGAEVRKPGESLKISCKGSGYSFTSYWIGWVRQMPGKGLEWMGFIYPGDSDTRYSPSFQGQVTISADKSISTAYLQRSSLKASDTAMYYCARLGGYSGYDSEVFYLDYWGQGTTVTVSS
B4: Anti-CLL-1 Binder Clone 10 (scFv, not shown: small tags and cut ends)
scFv: DIQMTQSPSFLSASVGDRVTITCRASQGISSYLAWYQQKPGKAPKLLIYSASSLQSGVPSRFSGSGSGTDFTLTISSLQPEDFATYYCQQSYNSPTFGQGTRLEIKGGGGSGGGGSGGGGSQVQLVQSGAEVKKPGASVKVSCKASGYTFTGYYMHWVRQAPGQGLEWMGWMNPNSGNTGYAQKFQGRVTMTRNTSISTAYLELTSLTSDDTAVYYCARGDTGDFFDHWGQGTLVTVSS
B5: Anti-CLL-1 Binder Clone 11 (scFv, not shown: small tags and cut ends)
scFv: QSVLTQPASVSGSPGQSITISCTGTSSDVGASNSVSWYQRHPGKPPKLMIYDVSNRPSGISNRFSGSKSGNTASLTISGLQSEDEADYYCSSYTGSSTFVVFGGGTQLIILGGGGSGGGGSGGGGSEVQLVESGGGVVQPGGSLRLSCAASGFTFSSYWMSWVRQAPGKGLEWVANIRQDGSEKYYVDSVKGRFTISRDNAKNSLYLQMNSLRAEDAAVYYCAREQDTAMVAFDYWGQGTLVTVSS
B6: Anti-CLL-1 Binder Clone 12 (scFv, not shown: small tags and cut ends)
scFv: DIQMTQSPSSLSASVGDRVTITCQASQDISNYLNWYQQKPGKAPKLLIYDASNLETGVPSRFSGSGSGTDFTLTISSPQPEDLATYYCQQANSFPFTFGQGTKVEIKGGGGSGGGGSGGGGSQVQLVQSGAEVKKPGSSVKVSCKASGYSFTRNDITWVRQANGRGLEWLGRLNPNNGDTVYAEVFQGRVAMTRDTSTDTAYMELASLKSDDTAVYFCARGFWSFDVWGQGTMVTVSS
B7: Anti-CLL-1 Binder Clone 20 (VHH, not shown: small tags and cut ends)
VHH: QVQLVQSGGGLVQPGGSLRLSCAASDFSFSYYEMSWVRQAPGKGLEWVSTISGSGDSTYYADSVKGRFTISRDNTKNTLYLQMNTLRAEDTATYYCMTDGETWGTHRYTVYWGQGALVTVSS
B8: Anti-CLL-1 Binder Clone 38 (scFv, not shown: small tags and cut ends)
scFv: DIQMTQSPSTLSASVGDRVTITCRASQSISSWLAWYQQKPGKAPKLLIYTASSLQSGVPSRFSGSESGTDFTLTISSLQPEDFATYYCQQSYSTPLTFGGGTKVDIKGGGGSGGGGSGGGGSQVQLVQSGAEVKKPGASVKVSCKASGYTFTGYYMHWVRQAPGQGLEWMGWINPNSGGTNYAQKFQGRVTLTRDTSITTAYLELTSLTSDDTAVYYCARGDTGDFFDHWGQGTLVTVSS
B9: Anti-CLL-1 Binder Clone 40 (scFv, not shown: small tags and cut ends)
scFv: QSVLTQPPSVSAAPGQKVTISCSGSSSNIGNNYVSWYQQLPGTAPKLLIYDNNKRPSGIPDRFSGSESGTSATLGITGLQTGDEADYYCGTWDSSLSAWVFGGGTQLIILGGGGSGGGGSGGGGSQVQLQQSGPGLVKPSQTLSLTCAISGDSVSSNSAAWNWIRQSPSRGLEWLGRTHYRSKWYNDYAVSVKSRITISADTSKNQFSLQLNSVTPEDTAVYYCARDRYTVRPDAFDIWGQGTTVTVSS
B10: Anti-CLL-1 Binder Clone 41 (scFv, not shown: small tags and cut ends)
scFv: QSVLTQPASVSGSLGQSITISCTGTSRDVGGYNFVSWYQQHPGKAPKLIIFDVTTRPSGLSDRFSASKSGNTASLTISGLQAEDEADYFCGSYTASDTMLFGGGTKLTVLGGGGSGGGGSGGGGSQVQLLESGGGVVQPGRSLRLSCAASGFTFDDYAMHWVRQAPGKGLEWVSGISWNSGSIGYADSVKGRFTVSRDNSKNTLYQQMNGLRAEDTAVYYCAREGRPTAFDYWGQGTTVTVSS
B11: Anti-CLL-1 Binder Clone 95 (VHH)
VHH: QVQLVQSGGGLVQPGGSLRLSCAASAFDFDDSSMDWVRQAPGKALEWIGSISYFGSTYYNPSLKSRVTISRDNSKNTLYLQMNTLRAEDTATYYCTRSALYGDAAFDVWAQGTTVTVS
B12: Anti-CLL-1 Binder Clone 96 (VHH)
VHH: QVQLVQSGGGLVQPGGSLRLSCAASYFDFSYYEMSWVRQAPGKGLEWVSLMSGNGGSTYYADSVKGRFTISRDNSKNTLYLQMNTLRAEDTATYYCVAHSSTWFSWGQGTLVTVSS
B13: Anti-CLL-1 Binder Clone 97 (VHH)
VHH: QVQLVQSGGGLVQPGGSLRLSCAASDFDFDDDSMDWVRQAPGKGLEWIGSVLHDGATYYNPSLKSRVTISRDNSKNTLYLQMNTLRAEDTATYYCTRSALYGDAAFDVWAQGTMVTVSS
B14: Anti-CLL-1 Binder Clone 98 (VHH)
VHH: QVQLVQSGGGLVQPGGSLRLSCAASDFYFDDYEMSWVRQAPGQRLEWVSLISSDGTTYYADSVKGRFTISRDNSKNTLYLQMNTLRAEDTALYYCVRTTDSWELDLWGRGTLVTVSS
B15: Anti-CLL-1 Binder Clone 99 (VHH)
VHH: QVQLVQSGGGLVQPGGSLRLSCAASAFDFYSYEMSWVRQAPGKGLEWVSYIGPIGTDIGYADSVKGRFTISRDNSKNTLYLQMNTLRAEDTAMYYCAKDPYYDSTGLTSYWGQGTLVTVSS
B16: Anti-CLL-1 Binder Clone 100 (VHH)
VHH: B13 VHH with G44A, L52S, H53Y, D54S, A56Q, Y58F, T92M
B17: Anti-CLL-1 Binder Clone 101 (VHH)
VHH: B13 VHH with D30A, G44A, V51I, L52F, H53Y, D54S, A56T, T92V
B18: Anti-CLL-1 Binder Clone 102 (VHH)
VHH: QVQLVQSGGGLVQPGGSLRLSCAASYFSFADYEMSWVRQAPGQRLEWVAVVSKDGNELYYADSVKGRFTISRDNSKNTLYLQMNTLRAEDTAVYYCVKDPYDFWSGYYSNWGQGTLVTVSS
B19: Anti-CLL-1 Binder Clone 94 (VHH)
VHH: QVQLVQSGGGLVQPGGSLRLSCAASYFDFAAYDMDWVRQAPGQRLEWVAKISHDGSYSWYADSVKGRFTISRDNSKNTLYLQMNTLRAEDTAVYYCVRGEGGSERADYWGRGTLVTVSS

How the values were obtained:
[1] = target: biotinylated recombinant human CLL-1 extracellular domain protein, isoform with glutamine at amino acid position 244 (human) (UniProt Q5QGZ9); assay: Blitz (CLL-1-Q244)
Sequence of biotinylated recombinant human CLL-1 extracellular domain protein, isoform with glutamine at amino acid position 244 (human) (Q5QGZ9 65-265): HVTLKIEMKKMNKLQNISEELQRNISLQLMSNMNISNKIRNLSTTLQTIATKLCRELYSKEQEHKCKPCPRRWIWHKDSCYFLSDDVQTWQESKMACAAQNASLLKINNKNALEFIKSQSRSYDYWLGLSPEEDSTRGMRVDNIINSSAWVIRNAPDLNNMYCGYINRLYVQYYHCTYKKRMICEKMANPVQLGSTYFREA

[2] = target: biotinylated recombinant human CLL-1 extracellular domain protein, isoform with glutamine at amino acid position 244 (human) (UniProt Q5QGZ9); assay: BLItz, 1:1 model (Q244 per FIG. 12B)
[3] = target: biotinylated recombinant human CLL-1 extracellular domain protein, isoform with glutamine at amino acid position 244 (human) (UniProt Q5QGZ9); assay: Exp 2 (= Blitz, CLL-1-Q244 of FIG. 12B)
[4] = target: biotinylated recombinant human CLL-1 extracellular domain protein, isoform with lysine at amino acid position 244 (human) (UniProt Q5QGZ9); assay: Octet (CLL-1-K244); variant: Both
Sequence of biotinylated recombinant human CLL-1 extracellular domain protein, isoform with lysine at amino acid position 244 (human) (Q5QGZ9 65-265): as above

[5] = target: biotinylated recombinant human CLL-1 extracellular domain protein, isoform with lysine at amino acid position 244 (human) (UniProt Q5QGZ9); assay: Exp 1 (= Octet, CLL-1-K244 of FIG. 12B)
[6] = target: biotinylated recombinant human CLL-1 extracellular domain protein, isoform with lysine at amino acid position 244 (human) (UniProt Q5QGZ9); assay: Octet (CLL-1-K244); variant column: Q>K
[7] = target: biotinylated recombinant human CLL-1 extracellular domain protein, isoform with lysine at amino acid position 244 (human) (UniProt Q5QGZ9); assay: Octet (CLL-1-K244); variant column says Only Q
[8] = target: biotinylated recombinant human CLL-1 extracellular domain protein, isoform with lysine at amino acid position 244 (human) (UniProt Q5QGZ9); assay: EC50 table, CLL-1 K244; reciprocals of the ELISA bars of FIG. 8B
[9] = target: biotinylated recombinant human CLL-1 extracellular domain protein, isoform with glutamine at amino acid position 244 (human) (UniProt Q5QGZ9); assay: EC50 table, CLL-1 Q244; reciprocals of the ELISA bars of FIG. 8B

Binder | Kd [1] [nM] | Kd [2] [nM] | koff [2] [s⁻¹] | kon [2] [M⁻¹ s⁻¹] | Kd [3] [nM] | Kd [4] [nM] | Kd [5] [nM] | Kd [6] [nM] | Kd [7] [nM] | EC50 [8] [nM] | EC50 [9] [nM]
B1 | 70 | 70 | 0.0033 | 47000 | 70 |  |  |  |  |  | 
B2 | 13 | 13 | 0.00057 | 43000 | 13 |  |  |  |  |  | 
B3 | 11 | 11 | 0.00029 | 27000 | 11 | 5.08 | 5.08 |  |  |  | 
B4 | 21 | 21 | 0.0013 | 62000 | 21 | 2.61 | 2.61 |  |  |  | 
B5 | 41 | 41 | 0.0023 | 59000 | 41 |  | 16.6 | 16.6 |  |  | 
B6 | 45 | 45 | 0.0034 | 76000 | 45 |  |  |  |  |  | 
B7 | 33 | 33 | 0.0035 | 110000 | 33 | 5.68 | 5.68 |  |  |  | 
B8 | 14 | 14 | 0.00097 | 69000 | 14 | 1.74 | 1.74 |  |  |  | 
B9 | 14 | 14 | 0.00081 | 58000 | 14 |  | 8.35 |  | 8.35 |  | 
B10 | 306 | 306 | 0.032 | 100000 | 306 |  |  |  |  |  | 
B11 |  |  |  |  |  |  |  |  |  | 5.1 | 5.3
B12 |  |  |  |  |  |  |  |  |  | 6.4 | 6.4
B13 |  |  |  |  |  |  |  |  |  | 1.3 | 1.3
B14 |  |  |  |  |  |  |  |  |  | 12 | 11
B15 |  |  |  |  |  |  |  |  |  | 93 | 88
B16 |  |  |  |  |  |  |  |  |  | 0.6 | 0.59
B17 |  |  |  |  |  |  |  |  |  | 4.8 | 4.8
B18 |  |  |  |  |  |  |  |  |  | 2.6 | 2.5
B19 |  |  |  |  |  |  |  |  |  |  | 90
